Assay results taken from patent publication US20220313738A1.
Changes are numbered by the printed parent chain.

B1: wildtype SIV Nef, Q02840 1-223 (protein)
chain: MGSSNSKRQQQGLLKLWRGLRGKPGADWVLLSDPLIGQSSTVQEECGKALKKSWGKGKMTPDGRRLQEGDTFDEWDDDEEEVGFPVQPRVPLRQMTYKLAVDFSHFLKSKGGLDGIYYSERREKILNLYALNEWGIIDDWQAYSPGPGIRYPRVFGFCFKLVPVDLHEEARNCERHCLMHPAQMGEDPDGIDHGEVLVWKFDPKLAVEYRPDMFKDMHEHAKR
B2: SIV Nef M116, Q02840 1-223 (protein)
chain: B1 chain with L178A, M179A

Molecular target: Jurkat-M663, Jurkat-M665 and Jurkat-M666 (ISD-modified BCMA CARs M663, M665, M666)
Assay: cell-based or functional assay

Binder | relative ISD-modified CAR positive rate (FACS), days 6, 7 and 8 [%]
B1 | 41.2 to 69.8
B2 | 44.6 to 64.9
